Experimental data taken from patent publication US20160280766A1 (UNIVERSITY OF MARYLAND BALTIMORE, published 2016).

T1: FcγRIIA (human, UniProt P12318 34-217, limits assumed)
T1 construct: also called CD32; not shown: His-tag fused to the C-terminus
T1 sequence (looked up): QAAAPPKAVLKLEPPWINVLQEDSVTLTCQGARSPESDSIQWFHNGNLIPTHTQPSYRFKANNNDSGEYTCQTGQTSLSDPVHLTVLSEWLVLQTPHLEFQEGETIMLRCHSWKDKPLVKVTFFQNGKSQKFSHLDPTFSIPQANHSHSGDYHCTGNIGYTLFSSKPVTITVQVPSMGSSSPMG

T2: FcγRIIB (human, UniProt P31994 43-217, limits assumed)
T2 construct: also called CD32; not shown: His-tag fused to the C-terminus
T2 sequence (looked up): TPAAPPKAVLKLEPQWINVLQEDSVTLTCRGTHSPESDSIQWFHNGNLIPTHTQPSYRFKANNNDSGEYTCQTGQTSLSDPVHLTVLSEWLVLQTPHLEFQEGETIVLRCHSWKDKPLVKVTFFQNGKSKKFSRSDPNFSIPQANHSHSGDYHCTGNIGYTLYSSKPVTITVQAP


Columns and labels:
[1] = molecular target: T3, FcγRIIIA having a Val residue at polymorphic site 158 (human, UniProt P08637 17-208); assay: ratio of SPR KDs, reference Fc-WT
T3 construct: also called FcγRIIIA-158V; CD16a; not shown: His-tag fused to the C-terminus
T3 sequence (P08637 17-208 F176V): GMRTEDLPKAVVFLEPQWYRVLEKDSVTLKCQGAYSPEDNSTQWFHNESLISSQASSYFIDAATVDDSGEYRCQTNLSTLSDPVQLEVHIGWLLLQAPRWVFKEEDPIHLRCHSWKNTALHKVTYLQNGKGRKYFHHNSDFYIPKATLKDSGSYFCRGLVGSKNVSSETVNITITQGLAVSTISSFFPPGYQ

FcγRIIA [2] = molecular target: T1, FcγRIIA; assay: ratio of SPR KDs, reference Fc-WT
[3] = molecular target: T4, FcγRIIIA having a Phe residue at polymorphic site 158 (human, UniProt P08637 17-208, limits assumed); assay: ratio of SPR KDs, reference Fc-WT
T4 construct: also called FcγRIIIA-158F; CD16a; not shown: His-tag fused to the C-terminus
T4 sequence (P08637 17-208 limits assumed): as the sequence (P08637 17-208 F176V) above, with V160F counted along it

FcγRIIB [4] = molecular target: T2, FcγRIIB; assay: ratio of SPR KDs, reference Fc-WT
FcγRIIA [5] = molecular target: T1, FcγRIIA; assay: SPR, Fc captured on Protein A, receptor injected; steady-state analysis
[6] = molecular target: T4, FcγRIIIA having a Phe residue at …; assay: as above
FcγRIIB [7] = molecular target: T2, FcγRIIB; assay: as above
[8] = molecular target: T3, FcγRIIIA having a Val residue at …; assay: SPR, Fc captured on Protein A, receptor injected; 1:1 Langmuir kinetic fit
Experimental: All experiments were performed using a Biacore T100 instrument (GE Healthcare). Protein A (Sigma-Aldrich) (0.1 mg/mL, 10 mM sodium acetate, pH 4.5) was immobilized at a density of 1000 response units (RU) in flow cells 1 and 2 of a CM5 sensor chip via standard amine-coupling procedure according to the manufacturer's instructions (GE Healthcare), using HBS-X buffer (10 mM HEPES, 150 mM NaCl, 0.05% Tween 20) as the running buffer and a flow rate of […]. Flow cell 1 was used as negative control, while flow cell 2 was used to capture wild type or hyper-glycosylated Fc variants in PBS at a density of 100-150 RU. […] Between experiments, the sensor chip surface was regenerated by 2 injections of 15 μL each of 20 mM HCl. Experimental data were corrected for instrument and bulk artifacts by referencing to a control sensor chip surface using Biacore T100 evaluation software 2.0.3 (GE Healthcare). Kinetic parameters of binding were determined using the same software and a 1:1 Langmuir binding model for all FcγRIIIA-158V interactions.

fold decrease in binding (Fc-variant KD/Fc-WT KD) [1] | fold decrease in binding (Fc-variant KD/Fc-WT KD) (FcγRIIA [2]) | fold decrease in binding (Fc-variant KD/Fc-WT KD) [3] | fold decrease in binding (Fc-variant KD/Fc-WT KD) (FcγRIIB [4]) | Kd (FcγRIIA [5]) | Kd [6] | Kd (FcγRIIB [7]) | Kd [8] | Binder
17.8 fold | 11.2 fold | 11.8 fold | 12.2 fold | 13.4 µM | 151 nM | 20.8 µM | 57 nM | Fc-226^hg/290^hg/E333A/K334A (other, N-linked glycans at Asn297 and at engineered Asn226 and Asn290 (IgG1 heavy chain positions)) EPKSCDKTHTNSTCPAPELLGGPSVFLFPPKPKDTLMISRTPEVTCVVVDVSHEDPEVKFNWYVDGVEVHNAKTNSTEEQYNSTYRVVSVLTVLHQDWLNGKEYKCKVSNKALPAPIAATISKAKGQPREPQVYTLPPSREEMTKNQVSLTCLVKGFYPSDIAVEWESNGQPENNYKTTPPVLDSDGSFFLYSKLTVDKSRWQQGNVFSCSVMHEALHNHYTQKSLSLSPGK
8.6 fold | 7.6 fold | 12.4 fold | 30.1 fold | 9.1 µM | 160 nM | 51.2 µM | 27.5 nM | IgG1 Fc variant Fc-226^hg/290^hg (other, N-linked glycans at Asn297 and at engineered Asn226 and Asn290 (IgG1 heavy chain positions), Both CPP (226-228) and KPR (290-292) replaced by NST) EPKSCDKTHTNSTCPAPELLGGPSVFLFPPKPKDTLMISRTPEVTCVVVDVSHEDPEVKFNWYVDGVEVHNAKTNSTEEQYNSTYRVVSVLTVLHQDWLNGKEYKCKVSNKALPAPIEKTISKAKGQPREPQVYTLPPSREEMTKNQVSLTCLVKGFYPSDIAVEWESNGQPENNYKTTPPVLDSDGSFFLYSKLTVDKSRWQQGNVFSCSVMHEALHNHYTQKSLSLSPGK
6.3 fold | 10.7 fold | 6.9 fold | 60.9 fold | 12.8 µM | 87.8 nM | 104 µM | 20.2 nM | IgG1 Fc variant Fc-226^hg/290^hg/S298A (other, N-linked glycans at Asn297 and at engineered Asn226 and Asn290 (IgG1 heavy chain positions)) EPKSCDKTHTNSTCPAPELLGGPSVFLFPPKPKDTLMISRTPEVTCVVVDVSHEDPEVKFNWYVDGVEVHNAKTNSTEEQYNATYRVVSVLTVLHQDWLNGKEYKCKVSNKALPAPIEKTISKAKGQPREPQVYTLPPSREEMTKNQVSLTCLVKGFYPSDIAVEWESNGQPENNYKTTPPVLDSDGSFFLYSKLTVDKSRWQQGNVFSCSVMHEALHNHYTQKSLSLSPGK
– | – | – | – | – | 66.1 nM | 18.8 µM | 20.8 nM | IgG1 Fc variant Fc-290^hg (other, N-linked glycans at Asn297 and at engineered Asn290 (IgG1 heavy chain positions), KPR at 290-292 replaced by NST) EPKSCDKTHTCPPCPAPELLGGPSVFLFPPKPKDTLMISRTPEVTCVVVDVSHEDPEVKFNWYVDGVEVHNAKTNSTEEQYNSTYRVVSVLTVLHQDWLNGKEYKCKVSNKALPAPIEKTISKAKGQPREPQVYTLPPSREEMTKNQVSLTCLVKGFYPSDIAVEWESNGQPENNYKTTPPVLDSDGSFFLYSKLTVDKSRWQQGNVFSCSVMHEALHNHYTQKSLSLSPGK
– | – | – | – | – | – | 7.1 µM | 2.1 nM | Fc-S298A/E333A/K334A (other, N-linked glycan at Asn297) EPKSCDKTHTCPPCPAPELLGGPSVFLFPPKPKDTLMISRTPEVTCVVVDVSHEDPEVKFNWYVDGVEVHNAKTKPREEQYNATYRVVSVLTVLHQDWLNGKEYKCKVSNKALPAPIAATISKAKGQPREPQVYTLPPSREEMTKNQVSLTCLVKGFYPSDIAVEWESNGQPENNYKTTPPVLDSDGSFFLYSKLTVDKSRWQQGNVFSCSVMHEALHNHYTQKSLSLSPGK
4.8 fold | 10.7 fold | 3.9 fold | 37.8 fold | 12.8 µM | 50.1 nM | 64.2 µM | 15.5 nM | IgG1 Fc variant Fc-226^hg/290^hg/S298A/E333A/K334A (other, N-linked glycans at Asn297 and at engineered Asn226 and Asn290 (IgG1 heavy chain positions)) EPKSCDKTHTNSTCPAPELLGGPSVFLFPPKPKDTLMISRTPEVTCVVVDVSHEDPEVKFNWYVDGVEVHNAKTNSTEEQYNATYRVVSVLTVLHQDWLNGKEYKCKVSNKALPAPIAATISKAKGQPREPQVYTLPPSREEMTKNQVSLTCLVKGFYPSDIAVEWESNGQPENNYKTTPPVLDSDGSFFLYSKLTVDKSRWQQGNVFSCSVMHEALHNHYTQKSLSLSPGK
